{
  "source": "patent US20230110875A1",
  "about": "(US Dept. of Health and Human Services, published 2023)",
  "binders": {"B1": {"name": "Clone CD276.1 (m851) scFv-Fc fusion protein (Fc fusion)", "scFv": "QVQLQQSGAEVKKPGSSVKVSCKASGGTFSSYAISWVRQAPGQGLEWMGGIIPILGIANYAQKFQGRVTITADESTSTAYMELSSLRSEDTAVYYCARGGAGGSGSYYPLIWGQGTTVTVSSGGGGSGGGGSGGGGSEIVLTQSPATLSLSPGERATLSCGASQSVSSSYLAWYQQKPGQAPRLLIYDASSRATGIPARFSGSGSGTDFTLTISSLEPEDFAVYYCQQRSSWPPTWTFGQGTKLEIKR", "notes": "also called m851 (CD276.1); not shown: Fc-Avi tag from modified pSecTag vector"}},
  "biological_target": "T1, mouse CD276-AP fusion protein (mouse, UniProt Q8VE98 29-248)",
  "T1 construct": "Coated on the ELISA plate at 2 ug/ml; not shown: AP fusion partner",
  "T1 sequence (looked up)": "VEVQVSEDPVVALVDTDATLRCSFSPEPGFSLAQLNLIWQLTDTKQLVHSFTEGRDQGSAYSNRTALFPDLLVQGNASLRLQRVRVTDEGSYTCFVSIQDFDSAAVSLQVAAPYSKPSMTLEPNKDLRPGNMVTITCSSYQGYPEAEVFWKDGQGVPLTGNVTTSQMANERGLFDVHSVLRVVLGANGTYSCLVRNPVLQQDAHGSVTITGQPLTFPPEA",
  "experiment": "ELISA, mouse CD276-AP fusion protein coated at 2 ug/ml, serially diluted scFv-Fc culture medium, HRP goat anti-human IgG, OD 450 nm",
  "description": "50 μl of the diluted mouse or human CD276-AP fusion protein in PBS at 2 μg/ml was coated in a 96-well plate at 4° C. overnight. Transiently expressed scFv-Fc fusion protein in the culture medium was serially diluted and added into the target protein coated wells. After washing, a 1:3000 diluted horseradish peroxidase (HRP) conjugated goat anti-human IgG antibody was added for 1 hr at RT. After washing, 3, 3, 5, 5′-Tetramethylbenzidine (TMB) substrate was added, and the optical density (O.D.) was read at 450 nm.",
  "data": [
    {"binder": "B1", "values": [
      {"measurement": "binding result", "value": "no binding"}
    ]}
  ]
}
